Data as given in patent US20140193401A1 (published 2014).

Legend:
Assay in all cases: SPR (BIAcore 3000), mAb 1B7 immobilised on CM5 chip, toxin injected
PTx-S1-220 R39A = target: T1, PTx-S1-220 R39A (Bordetella pertussis, UniProt P04977 35-254)
T1 chain: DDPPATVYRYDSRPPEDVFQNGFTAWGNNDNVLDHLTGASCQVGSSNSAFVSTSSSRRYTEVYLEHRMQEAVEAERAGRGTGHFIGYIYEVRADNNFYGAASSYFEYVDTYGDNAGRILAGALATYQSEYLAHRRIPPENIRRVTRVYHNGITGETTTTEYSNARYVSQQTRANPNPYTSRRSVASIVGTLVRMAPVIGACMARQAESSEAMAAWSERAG

PTx-S1-220 Y161A = target: T2, PTx-S1-220 Y161A (Bordetella pertussis, UniProt P04977 35-254)
T2 chain: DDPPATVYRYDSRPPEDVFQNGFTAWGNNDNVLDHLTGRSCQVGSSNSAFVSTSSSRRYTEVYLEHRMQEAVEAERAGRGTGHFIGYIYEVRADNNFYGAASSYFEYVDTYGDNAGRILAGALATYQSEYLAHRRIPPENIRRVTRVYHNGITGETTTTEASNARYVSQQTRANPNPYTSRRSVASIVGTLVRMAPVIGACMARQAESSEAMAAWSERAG

[1] = target: T3, PTx-S1-220 (truncated PTx-S1, residues 1-220, strain Tohama I, variant B) (Bordetella pertussis, UniProt P04977 35-254)
T3 construct: also called WT PTx-S1-220; PTx-S1B
T3 sequence: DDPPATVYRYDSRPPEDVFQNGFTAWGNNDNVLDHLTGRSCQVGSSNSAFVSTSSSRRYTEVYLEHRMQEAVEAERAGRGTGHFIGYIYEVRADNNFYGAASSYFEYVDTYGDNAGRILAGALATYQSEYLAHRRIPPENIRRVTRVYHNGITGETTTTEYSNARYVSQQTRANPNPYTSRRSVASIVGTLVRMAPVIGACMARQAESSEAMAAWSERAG

PTx-S1-220 T153A = target: T4, PTx-S1-220 T153A (Bordetella pertussis, UniProt P04977 35-254)
T4 chain: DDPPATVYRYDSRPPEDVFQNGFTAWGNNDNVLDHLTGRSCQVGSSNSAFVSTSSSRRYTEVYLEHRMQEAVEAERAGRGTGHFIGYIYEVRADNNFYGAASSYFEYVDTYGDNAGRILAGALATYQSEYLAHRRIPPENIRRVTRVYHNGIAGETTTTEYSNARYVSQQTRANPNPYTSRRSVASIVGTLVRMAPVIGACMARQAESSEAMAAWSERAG

PTx-S1-220 T158A = target: T5, PTx-S1-220 T158A (Bordetella pertussis, UniProt P04977 35-254)
T5 chain: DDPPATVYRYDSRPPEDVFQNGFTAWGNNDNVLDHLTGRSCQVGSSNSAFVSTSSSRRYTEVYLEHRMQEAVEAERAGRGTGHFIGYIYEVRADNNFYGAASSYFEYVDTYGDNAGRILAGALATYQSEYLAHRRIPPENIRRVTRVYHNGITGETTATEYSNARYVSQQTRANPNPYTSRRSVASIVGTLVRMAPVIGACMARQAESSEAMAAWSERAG

PTx-S1-220 R146A = target: T6, PTx-S1-220 R146A (Bordetella pertussis, UniProt P04977 35-254)
T6 chain: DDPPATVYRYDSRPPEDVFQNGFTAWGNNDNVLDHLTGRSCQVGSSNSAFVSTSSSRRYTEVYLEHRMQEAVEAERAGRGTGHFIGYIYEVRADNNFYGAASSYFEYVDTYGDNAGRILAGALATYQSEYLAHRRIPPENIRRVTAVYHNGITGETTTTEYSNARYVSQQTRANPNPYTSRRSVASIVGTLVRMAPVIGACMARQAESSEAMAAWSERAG

PTx-S1-220 Y148A = target: T7, PTx-S1-220 Y148A (Bordetella pertussis, UniProt P04977 35-254)
T7 chain: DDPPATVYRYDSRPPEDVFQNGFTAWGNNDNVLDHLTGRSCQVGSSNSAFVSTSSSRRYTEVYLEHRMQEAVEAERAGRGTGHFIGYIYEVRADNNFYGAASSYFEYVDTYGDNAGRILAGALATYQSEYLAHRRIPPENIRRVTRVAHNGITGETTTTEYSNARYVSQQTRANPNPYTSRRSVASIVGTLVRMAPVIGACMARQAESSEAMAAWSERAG

PTx-S1-220 N176A = target: T8, PTx-S1-220 N176A (Bordetella pertussis, UniProt P04977 35-254)
T8 chain: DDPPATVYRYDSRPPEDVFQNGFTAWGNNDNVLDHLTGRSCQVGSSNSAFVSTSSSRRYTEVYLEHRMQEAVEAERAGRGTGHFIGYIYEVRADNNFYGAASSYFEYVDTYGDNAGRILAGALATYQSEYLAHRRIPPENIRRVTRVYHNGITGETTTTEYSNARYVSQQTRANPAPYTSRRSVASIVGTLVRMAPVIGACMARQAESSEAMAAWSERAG

PTx-S1-220 E210A = target: T9, PTx-S1-220 E210A (Bordetella pertussis, UniProt P04977 35-254)
T9 chain: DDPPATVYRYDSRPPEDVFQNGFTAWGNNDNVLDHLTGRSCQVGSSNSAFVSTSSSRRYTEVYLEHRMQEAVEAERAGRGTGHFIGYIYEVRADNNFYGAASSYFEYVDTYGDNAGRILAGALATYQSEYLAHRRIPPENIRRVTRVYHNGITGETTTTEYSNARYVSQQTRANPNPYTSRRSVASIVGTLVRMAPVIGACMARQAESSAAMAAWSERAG

B1: murine monoclonal antibody 1B7 (antibody, V domains shown)
VH: EVQLQQSGSELVRPGASVKLSCKASGYKFTSYWMHWVKQRPGQGLEWIGNIFPGSGSTNYDEKFNSKATLTVDTSSNTAYMQLSSLTSEDSAVYYCTRWLSGAYFDYWGQGTTLTVSS
VL: DIQMTQSPALMSASPGEKVTMTCSASSSVSFMYWYQQKPRSSPKPWIYLTSNLPSGVPARFSGSGSGTSYSLTISSMEAEDAATYYCQQWSSHPPTFGSGTKLEIKR
notes: also called mAb 1B7; 1B7 mAb
PTx-S1-220 R39A
  koff: 0.003 s⁻¹
PTx-S1-220 Y161A
  koff: 0.0013 s⁻¹
[1]
  koff: 0.0014 s⁻¹
PTx-S1-220 T153A
  koff: 0.002 s⁻¹
PTx-S1-220 T158A
  koff: 0.0013 s⁻¹
PTx-S1-220 R146A
  koff: 0.0015 s⁻¹
PTx-S1-220 Y148A
  koff: 0.029 s⁻¹
PTx-S1-220 N176A
  koff: 0.0011 s⁻¹
PTx-S1-220 E210A
  koff: 0.0016 s⁻¹
